Molecular target: linear triubiquitin (UniProt P0CG48)
Experiment: BLI

linear triubiquitin, sequence (P0CG48 1-228): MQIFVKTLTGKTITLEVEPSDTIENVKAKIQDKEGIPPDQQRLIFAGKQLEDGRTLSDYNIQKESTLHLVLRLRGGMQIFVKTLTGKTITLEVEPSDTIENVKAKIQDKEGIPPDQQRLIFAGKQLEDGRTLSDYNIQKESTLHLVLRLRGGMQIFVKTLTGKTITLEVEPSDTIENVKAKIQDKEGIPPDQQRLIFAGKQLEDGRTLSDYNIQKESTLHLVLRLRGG

Binder: PKQRCRAPACDHFGNAKCNGYCNECFQFKQMYG (domain or fragment, biotin (singly biotinylated)) [singly biotinylated A20 zinc finger 7 (ZnF7: P758-G790)]
- binding result: binds
